From article PMC11098083 (Proceedings of the National Academy of Sciences of the …, 2024)
Read-outs that look alike come from different tables or passages of the source.

T1: HIS-tagged N-terminal of yeast Pol1 (1 to 527 AA) (yeast (S. cerevisiae), UniProt P13382 1-527)
T1 sequence (looked up): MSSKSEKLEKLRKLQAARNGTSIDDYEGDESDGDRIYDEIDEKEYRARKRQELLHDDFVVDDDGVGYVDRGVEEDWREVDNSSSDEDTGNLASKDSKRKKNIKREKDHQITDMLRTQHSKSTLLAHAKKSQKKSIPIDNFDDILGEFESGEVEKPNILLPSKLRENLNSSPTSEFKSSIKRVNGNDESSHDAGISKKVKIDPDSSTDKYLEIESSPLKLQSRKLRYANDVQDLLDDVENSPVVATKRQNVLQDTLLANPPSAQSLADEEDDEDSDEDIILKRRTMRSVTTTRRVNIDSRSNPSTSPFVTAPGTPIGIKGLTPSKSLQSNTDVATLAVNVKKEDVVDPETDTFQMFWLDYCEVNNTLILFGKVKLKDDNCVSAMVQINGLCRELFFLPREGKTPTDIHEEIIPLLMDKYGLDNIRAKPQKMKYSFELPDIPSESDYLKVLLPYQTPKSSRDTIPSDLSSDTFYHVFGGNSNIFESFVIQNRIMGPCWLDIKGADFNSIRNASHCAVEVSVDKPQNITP

B1: recombinant Mcm2 (GST tag removed) (natural protein)
chain: MSDNRRRRREEDDSDSENELPPSSPQQHFRGGMNPVSSPIGSPDMINPEGDDNEVDDVPDIDEVEEQMNEVDLMDDNMYEDYAADHNRDRYDPDQVDDREQQELSLSERRRIDAQLNERDRLLRNVAYIDDEDEEQEGAAQLDEMGLPVQRRRRRRQYEDLENSDDDLLSDMDIDPLREELTLESLSNVKANSYSEWITQPNVSRTIARELKSFLLEYTDETGRSVYGARIRTLGEMNSESLEVNYRHLAESKAILALFLAKCPEEMLKIFDLVAMEATELHYPDYARIHSEIHVRISDFPTIYSLRELRESNLSSLVRVTGVVTRRTGVFPQLKYVKFNCLKCGSILGPFFQDSNEEIRISFCTNCKSKGPFRVNGEKTVYRNYQRVTLQEAPGTVPPGRLPRHREVILLADLVDVSKPGEEVEVTGIYKNNYDGNLNAKNGFPVFATIIEANSIKRREGNTANEGEEGLDVFSWTEEEEREFRKISRDRGIIDKIISSMAPSIYGHRDIKTAVACSLFGGVPKNVNGKHSIRGDINVLLLGDPGTAKSQILKYVEKTAHRAVFATGQGASAVGLTASVRKDPITKEWTLEGGALVLADKGVCLIDEFDKMNDQDRTSIHEAMEQQSISISKAGIVTTLQARCSIIAAANPNGGRYNSTLPLAQNVSLTEPILSRFDILCVVRDLVDEEADERLATFVVDSHVRSHPENDEDREGEELKNNGESAIEQGEDEINEQLNARQRRLQRQRKKEEEISPIPQELLMKYIHYARTKIYPKLHQMDMDKVSRVYADLRRESISTGSFPITVRHLESILRIAESFAKMRLSEFVSSYDLDRAIKVVVDSFVDAQKVSVRRQLRRSFAIYTLGH

Experiments:
Test in all cases: pull-down
[1] = target: T1, HIS-tagged N-terminal of yeast Pol1 (1 …)
[2] = target: B1
[3] = target: T2, recombinant human histone H3.1–H4 tetramer (human, UniProt P68431 1-136; P62805 1-103)
[4] = target: T2, recombinant human histone H3.1–H4 …; remark: listed apart in the source

| binding result [1] | binding result [2] | binding result [3] | binding result [4] | Binder |
| --- | --- | --- | --- | --- |
| binds | binds | binds |  | recombinant glutathione S-transferase (GST)-Pol32 (natural protein, yeast (S. cerevisiae), UniProt P47110 1-350, looked up) MDQKASYFINEKLFTEVKPVLFTDLIHHLKIGPSMAKKLMFDYYKQTTNAKYNCVVICCYKDQTIKIIHDLSNIPQQDSIIDCFIYAFNPMDSFIPYYDIIDQKDCLTIKNSYELKVSESSKIIERTKTLEEKSKPLVRPTARSKTTPEETTGRKSKSKDMGLRSTALLAKMKKDRDDKETSRQNELRKRKEENLQKINKQNPEREAQMKELNNLFVEDDLDTEEVNGGSKPNSPKETDSNDKDKNNDDLEDLLETTAEDSLMDVPKIQQTKPSETEHSKEPKSEEEPSSFIDEDGYIVTKRPATSTPPRKPSPVVKRALSSSKKQETPSSNKRLKKQGTLESFFKRKAK |
|  |  |  | binds | B1 |
